# Measurements: US6905849B1, “Process for preparing clavam derivatives by using polypeptides having β-lactam synthetase activity” (SmithKline Beecham plc, priority 1998, dated 2005)
# B1: orf3 product: polypeptide encoded by orf3 of the Streptomyces clavuligerus clavulanic acid gene cluster (SEQ ID NO:2), 56 KDa, β-lactam synthetase (protein, listed as Streptomyces clavuligerus)
# chain: GAPVLPAAFGFLASARTGGGRAPGPVFATRGSHTDIDTPQGERSLAATLVHAPSVAPDRAVARSLTGAPTTAVLAGEIYNRDELLSVLPAGPAPEGDAELVLRLLERYDLHAFRLVNGRFATVVRTGDRVLLATDHAGSVPLYTCVAPGEVRASTEAKALAAHRDPKGFPLADARRVAGLTGVYQVPAGAVMDIDLGSGTAVTHRTWTPGLSRRILPEGEAVAAVRAALEKAVAQRVTPGDTPLVVLSGGIDSSGVAACAHRAAGELDTVSMGTDTSNEFREARAVVDHLRTRHREITIPTTELLAQLPYAVWASESVDPDIIEYLLPLTALYRALDGPERRILTGYGADIPLGGMHREDRLPALDTVLAHDMATFDGLNEMSPVLSTLAGHWTTHPYWDREVLDLLVSLEAGLKRRHGRDKWVLRAAMADALPAETVNRPKLGVHEGSGTTSSFSRLLLDHGVAEDRVHEAKRQVVRELFDLTVGGGRHPSEVDTDDVVRSVADRTARGAA
# Test: Assay for conversion of compound (III) to compound (IV) by protein extracts, HPLC detection
# Type: biochemical, Streptomyces clavuligerus
# Settings: recombinant orf3 protein from E. coli BL21(DE3)/pBLS3; ATP, Mg(AcO)2, MOPS pH 7.4; 37 °C, 15 minutes; underivatised and benzoin-derivatised HPLC
# Method: The crude extracts prepared from the recombinant E. coli containing the pBLS3vector (example 5) and the purified protein product (example 6) were tested for the ability to catalyse the conversion of the compound (III) to compound (IV). Both compound (III) and compound (IV) were prepared synthetically following previously published methods (Baldwin et al J. Chem Soc. Chem Comm. 1993 p500-2 and Elson et al J. Chem Soc. Chem Comm. 1993 p1212-4). Protein extracts were assayed for the conversion of compound (III) to compound (IV) under the following conditions: [table] The above mixture was heated at 37 ° C. for 15 minutes before being analysed by the HPLC methods described below. This assay was carried out using the following equipment and conditions • Waters 746 data module • Waters 600E system controller • Waters 712 WISP injector • Waters 848 tunable absorbance detector The protocol used was Kai et al. (M. Kai, T. Miyazaki, M. Yamaguchi, Y Ohkura, J. Chromatog. 268, 417-424, 1983) which assays for compounds containing guanidino functionalities using a fluorescence detector. […]
molecule,measurement,value
B1,β-lactam synthetase activity: conversion of compound (III) to compound (IV),catalysis the conversion of compound (III) to compound (IV)
